Article PMC9979147

Target: Pertuzumab, 2 weeks stressed in PBS, pH 7.4
Assay: SPR; Biacore T200; pertuzumab immobilized on a Series S Protein A sensor chip (145 RU); single-cycle kinetics, five sequential injections of HER2 from 1.22 to 100 nM; phosphate-buffered saline with 0.05% Tween 20; flow 30 μL/min; 1:1 binding model

Chain of Pertuzumab, 2 weeks stressed in PBS, pH 7.4 (heavy, as listed by the source, chain 1 of 2): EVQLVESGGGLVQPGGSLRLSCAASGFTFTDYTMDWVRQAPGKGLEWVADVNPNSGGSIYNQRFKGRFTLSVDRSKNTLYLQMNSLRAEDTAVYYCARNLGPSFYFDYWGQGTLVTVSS
Chain of Pertuzumab, 2 weeks stressed in PBS, pH 7.4 (light, as listed by the source, chain 2 of 2): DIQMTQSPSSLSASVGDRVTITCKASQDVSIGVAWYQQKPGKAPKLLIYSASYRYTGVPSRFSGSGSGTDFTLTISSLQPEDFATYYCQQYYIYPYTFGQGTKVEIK

- Kd: 2.3 nM
Substance: Human HER2/ErbB2 protein, extracellular domain Thr23-Thr652, His Tag (from UniProt P04626 23-652) (domain or fragment)
